We go through 32 molecules from PMC12636033, “Chemical Engineering of Transcription Factors Uncovered Cell-Permeable μMax Modulators”.

The chains are these.
B1: dBr_Jan07_22296 (dsDNA)
DNA 1: TGAAGTGATTGTATGACCTTCTCCACTCTGCCGCCAGTCTGTGTTCCGTTGTCCGTGCTG
DNA 2: CAGCACGGACAACGGAACACAGACTGGCGGCAGAGTGGAGAAGGTCATACAATCACTTCA
B2: dBr_Jan07_40846 (dsDNA)
DNA 1: CCAGATCAACGCTTGCTAAATAAACGCAGCAAACTGGTCTGTGTTCCGTTGTCCGTGCTG
DNA 2: CAGCACGGACAACGGAACACAGACCAGTTTGCTGCGTTTATTTAGCAAGCGTTGATCTGG
B3: dBr_Jan07_08379 (dsDNA)
DNA 1: CGCGGAAGCCTCTACGCTTGATTGTATCCAACACCCGTCTGTGTTCCGTTGTCCGTGCTG
DNA 2: CAGCACGGACAACGGAACACAGACGGGTGTTGGATACAATCAAGCGTAGAGGCTTCCGCG
B4: dBr_Jan07_17054 (dsDNA)
DNA 1: GTTCTCCCTTGATTCAAGTATAACAAGATACCCATCGTCTGTGTTCCGTTGTCCGTGCTG
DNA 2: CAGCACGGACAACGGAACACAGACGATGGGTATCTTGTTATACTTGAATCAAGGGAGAAC
B5: dBr_Jan07_41703 (dsDNA)
DNA 1: CATTCATGTTGAGATAACACGTGGTTGGGCGTTAATGTCTGTGTTCCGTTGTCCGTGCTG
DNA 2: CAGCACGGACAACGGAACACAGACATTAACGCCCAACCACGTGTTATCTCAACATGAATG
B6: dBr_Jan07_16988 (dsDNA)
DNA 1: CCACCTAGGGGATACTCGCAAGGTCGGGAAACCACCGTCTGTGTTCCGTTGTCCGTGCTG
DNA 2: CAGCACGGACAACGGAACACAGACGGTGGTTTCCCGACCTTGCGAGTATCCCCTAGGTGG
B7: dBr_Jan07_40185 (dsDNA)
DNA 1: AGAATCAAGGTGAGCGAGCAAGGCTTAAAATCCCGCGTCTGTGTTCCGTTGTCCGTGCTG
DNA 2: CAGCACGGACAACGGAACACAGACGCGGGATTTTAAGCCTTGCTCGCTCACCTTGATTCT
B8: dBr_Jan07_30747 (dsDNA)
DNA 1: GGTACTACGATATAGGGATTACGCACCGCAAGGAGCGTCTGTGTTCCGTTGTCCGTGCTG
DNA 2: CAGCACGGACAACGGAACACAGACGCTCCTTGCGGTGCGTAATCCCTATATCGTAGTACC
B9: dBr_Jan07_16045 (dsDNA)
DNA 1: TACATATTGCCCTTTGGGTGAGTCACTCATTTTGGGGTCTGTGTTCCGTTGTCCGTGCTG
DNA 2: CAGCACGGACAACGGAACACAGACCCCAAAATGAGTGACTCACCCAAAGGGCAATATGTA
B10: dBr_Jan07_06649 (dsDNA)
DNA 1: TAAAGGTCACCAATAGTCATTGCAGACTGGGACAATGTCTGTGTTCCGTTGTCCGTGCTG
DNA 2: CAGCACGGACAACGGAACACAGACATTGTCCCAGTCTGCAATGACTATTGGTGACCTTTA
B11: dBr_Jan07_03085 (dsDNA)
DNA 1: TGTACGGGAGACCTTGCGGCGCCTACGAGCAACAACGTCTGTGTTCCGTTGTCCGTGCTG
DNA 2: CAGCACGGACAACGGAACACAGACGTTGTTGCTCGTAGGCGCCGCAAGGTCTCCCGTACA
B12: dBr_Jan07_08177 (dsDNA)
DNA 1: GGAGGTCTAACTGGGAACGGCAATGCGCCCATATTTGTCTGTGTTCCGTTGTCCGTGCTG
DNA 2: CAGCACGGACAACGGAACACAGACAAATATGGGCGCATTGCCGTTCCCAGTTAGACCTCC
B13: dBr_Jan07_34312 (dsDNA)
DNA 1: TTCAGACTGGCGCATGGTGCCCTCTGAACCCTGAATGTCTGTGTTCCGTTGTCCGTGCTG
DNA 2: CAGCACGGACAACGGAACACAGACATTCAGGGTTCAGAGGGCACCATGCGCCAGTCTGAA
B14: dBr_Jan07_28323 (dsDNA)
DNA 1: GGCTCAAGACAGATTGCAGCTTTGACAACCGAATTCGTCTGTGTTCCGTTGTCCGTGCTG
DNA 2: CAGCACGGACAACGGAACACAGACGAATTCGGTTGTCAAAGCTGCAATCTGTCTTGAGCC
B15: dBr_Jan07_06986 (dsDNA)
DNA 1: CAATAGACGTTGCAATTTGGCCTGACAGCTACGGAAGTCTGTGTTCCGTTGTCCGTGCTG
DNA 2: CAGCACGGACAACGGAACACAGACTTCCGTAGCTGTCAGGCCAAATTGCAACGTCTATTG
B16: dBr_Jan07_04854 (dsDNA)
DNA 1: CTGGGTTGGCCCTGCATTGGATACCTTTGAGCTCTCGTCTGTGTTCCGTTGTCCGTGCTG
DNA 2: CAGCACGGACAACGGAACACAGACGAGAGCTCAAAGGTATCCAATGCAGGGCCAACCCAG
B17: dBr_Jan07_28572 (dsDNA)
DNA 1: CGCTTTGCTCAGACGTCTGACTCGGACTATGAGAGGGTCTGTGTTCCGTTGTCCGTGCTG
DNA 2: CAGCACGGACAACGGAACACAGACCCTCTCATAGTCCGAGTCAGACGTCTGAGCAAAGCG
B18: dBr_Jan07_23467 (dsDNA)
DNA 1: ATTGGGGATGACAAGAGCTCTTCACAAAGAGGCCTTGTCTGTGTTCCGTTGTCCGTGCTG
DNA 2: CAGCACGGACAACGGAACACAGACAAGGCCTCTTTGTGAAGAGCTCTTGTCATCCCCAAT
B19: dBr_Jan07_19002 (dsDNA)
DNA 1: CTATGCCGGGATAGTTCACCATACGGTCACAGCTTTGTCTGTGTTCCGTTGTCCGTGCTG
DNA 2: CAGCACGGACAACGGAACACAGACAAAGCTGTGACCGTATGGTGAACTATCCCGGCATAG
B20: dBr_Jan07_21945 (dsDNA)
DNA 1: GCAGGGGTGTAGGACAACTCGGCGTCAGTGGGTAGTGTCTGTGTTCCGTTGTCCGTGCTG
DNA 2: CAGCACGGACAACGGAACACAGACACTACCCACTGACGCCGAGTTGTCCTACACCCCTGC
B21: dBr_Jan07_41473 (dsDNA)
DNA 1: TACTCGAAGCGTAAAAAAGACCGGGTAGGAAGCCAAGTCTGTGTTCCGTTGTCCGTGCTG
DNA 2: CAGCACGGACAACGGAACACAGACTTGGCTTCCTACCCGGTCTTTTTTACGCTTCGAGTA
B22: dBr_Jan07_04404 (dsDNA)
DNA 1: ATCCTCTTGAAACACTACAAGTTTCGTTAAAAAAAGGTCTGTGTTCCGTTGTCCGTGCTG
DNA 2: CAGCACGGACAACGGAACACAGACCTTTTTTTAACGAAACTTGTAGTGTTTCAAGAGGAT
B23: dBr_Jan07_08887 (dsDNA)
DNA 1: ATAGCCGCGTGGCATATGGTCCGGCGACCCCCTCTCGTCTGTGTTCCGTTGTCCGTGCTG
DNA 2: CAGCACGGACAACGGAACACAGACGAGAGGGGGTCGCCGGACCATATGCCACGCGGCTAT
B24: dBr_Jan07_13143 (dsDNA)
DNA 1: AGCTGTTGGTGCATCCTATGTCGAAGACTGGCGGCGGTCTGTGTTCCGTTGTCCGTGCTG
DNA 2: CAGCACGGACAACGGAACACAGACCGCCGCCAGTCTTCGACATAGGATGCACCAACAGCT
B25: dBr_Jan07_10250 (dsDNA)
DNA 1: CCGCTCCACGAGCCACGACCGAATACCGTACACGTGGTCTGTGTTCCGTTGTCCGTGCTG
DNA 2: CAGCACGGACAACGGAACACAGACCACGTGTACGGTATTCGGTCGTGGCTCGTGGAGCGG
B26: dBr_Jan07_39257 (dsDNA)
DNA 1: CAAACAGGCCGGTCTCTCGGTACAGTCACGTGTTCAGTCTGTGTTCCGTTGTCCGTGCTG
DNA 2: CAGCACGGACAACGGAACACAGACTGAACACGTGACTGTACCGAGAGACCGGCCTGTTTG
B27: dBr_Jan07_11873 (dsDNA)
DNA 1: CCAGAGTTCGTAGGCAAAAACCCGCGACGGTATGCCGTCTGTGTTCCGTTGTCCGTGCTG
DNA 2: CAGCACGGACAACGGAACACAGACGGCATACCGTCGCGGGTTTTTGCCTACGAACTCTGG
B28: dBr_Jan07_19753 (dsDNA)
DNA 1: ACACGTGTATGTAACATGCGAGCACTTCGTGCGCCTGTCTGTGTTCCGTTGTCCGTGCTG
DNA 2: CAGCACGGACAACGGAACACAGACAGGCGCACGAAGTGCTCGCATGTTACATACACGTGT
B29: dBr_Jan07_34487 (dsDNA)
DNA 1: AACAGCCCACCCCTTATCAACGCGGCGCTTTCAGGCGTCTGTGTTCCGTTGTCCGTGCTG
DNA 2: CAGCACGGACAACGGAACACAGACGCCTGAAAGCGCCGCGTTGATAAGGGGTGGGCTGTT
B30: dBr_Jan07_30748 (dsDNA)
DNA 1: CCGCAAGGAGCGCACTAGCATCTCCTCTCTTGGGCCGTCTGTGTTCCGTTGTCCGTGCTG
DNA 2: CAGCACGGACAACGGAACACAGACGGCCCAAGAGAGGAGATGCTAGTGCGCTCCTTGCGG
B31: dBr_Jan07_22655 (dsDNA)
DNA 1: GCCCACCCACCGAAATCGTCAATAGGCCTCACAGAAGTCTGTGTTCCGTTGTCCGTGCTG
DNA 2: CAGCACGGACAACGGAACACAGACTTCTGTGAGGCCTATTGACGATTTCGGTGGGTGGGC
B32: dBr_Jan07_20880 (dsDNA)
DNA 1: GTCGGTTAACCTACTGTAACGTCGCTTTCGGTGTGTGTCTGTGTTCCGTTGTCCGTGCTG
DNA 2: CAGCACGGACAACGGAACACAGACACACACCGAAAGCGACGTTACAGTAGGTTAACCGAC

For the data set, the target named is WT Max (Homo sapiens, UniProt P61244-2 13-93, M65Nle, norleucine written as M; other non-natural residues written as X). Kind of data set: PBM; 50-200 nM protein; PBS, 2% milk, BSA, salmon testes DNA, 0.02% Triton X-100. The following applies: chain copies: 2; label: surface-attached array probe.
Sequence of WT Max (P61244 other isoform, or with tags, fused parts or gaps M65Nle): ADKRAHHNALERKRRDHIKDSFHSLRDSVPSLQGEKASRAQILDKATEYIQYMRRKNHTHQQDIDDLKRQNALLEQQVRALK
Consider B1, for which the binding signal is -0.32 robust z of log adjusted intensity (ours), mean of two arrays. With B2, the binding signal was -0.51 robust z of log adjusted intensity (ours), mean of two arrays. The same measure for B3: -0.26 robust z of log adjusted intensity (ours), mean of two arrays.

For B4, the binding signal was -0.28 robust z of log adjusted intensity (ours), mean of two arrays. The same measure for B5: 5.69 robust z of log adjusted intensity (ours), mean of two arrays; for B6: -0.45 robust z of log adjusted intensity (ours), mean of two arrays; for B7: -0.61 robust z of log adjusted intensity (ours), mean of two arrays.

For B8, the binding signal is -0.4 robust z of log adjusted intensity (ours), mean of two arrays. Next, B9: -0.17 robust z of log adjusted intensity (ours), mean of two arrays; B10: -0.27 robust z of log adjusted intensity (ours), mean of two arrays. B11: the binding signal was -0.59 robust z of log adjusted intensity (ours), mean of two arrays.

In the case of B12, the binding signal was -0.41 robust z of log adjusted intensity (ours), mean of two arrays. The same measure for B13: -0.02 robust z of log adjusted intensity (ours), mean of two arrays; for B14: -0.41 robust z of log adjusted intensity (ours), mean of two arrays; for B15: -0.17 robust z of log adjusted intensity (ours), mean of two arrays.

Take B16: the binding signal is -0.33 robust z of log adjusted intensity (ours), mean of two arrays.

As to B17, the binding signal was -0.41 robust z of log adjusted intensity (ours), mean of two arrays. With B18, the binding signal is -0.43 robust z of log adjusted intensity (ours), mean of two arrays.

B19: the binding signal was -0.39 robust z of log adjusted intensity (ours), mean of two arrays. The same measure for B20: -0.45 robust z of log adjusted intensity (ours), mean of two arrays. In the case of B21, the binding signal was -0.29 robust z of log adjusted intensity (ours), mean of two arrays. Next, B22: -0.11 robust z of log adjusted intensity (ours), mean of two arrays; B23: 7 robust z of log adjusted intensity (ours), mean of two arrays. Next, B24: -0.67 robust z of log adjusted intensity (ours), mean of two arrays. The same measure for B25: 4.92 robust z of log adjusted intensity (ours), mean of two arrays; for B26: 4.93 robust z of log adjusted intensity (ours), mean of two arrays. B27: the binding signal was -0.41 robust z of log adjusted intensity (ours), mean of two arrays.

B28: the binding signal is 3.43 robust z of log adjusted intensity (ours), mean of two arrays. The same measure for B29: -0.28 robust z of log adjusted intensity (ours), mean of two arrays; for B30: -0.64 robust z of log adjusted intensity (ours), mean of two arrays; for B31: -0.54 robust z of log adjusted intensity (ours), mean of two arrays. The same measure for B32: -0.14 robust z of log adjusted intensity (ours), mean of two arrays.
